Measurements as given in the supplement of paper PMC12042874.
± gives the uncertainty stated by the source.

Experiment: amyloid nucleation score (Sup35N fusion, yeast selection) (log enrichment); library NNK3; higher = more nucleation; inactive = no reads after selection
In short: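 Peptides of 20 random codons, each fused to Sup35N, were expressed in psi-negative yeast. Cells were induced with 100 μM copper sulfate for 24 hours and grown 7 days at 30°C on medium lacking adenine and uracil, and plasmid inserts before and after selection were Illumina-sequenced. Nucleation scores are DiMSum log enrichments of output over input reads, centred on the mode score of non-aggregating sequences, and sequences under 100 input reads were excluded.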

| Substance | amyloid nucleation score |
| --- | --- |
| IPYRVFRRTLNLVENMMCRM | inactive |
| IQCIWDIVGDCWCNSSMGKE | inactive |
| IQDHYSDPAN | inactive |
| IQDLEASRFGSIVIALDNCS | inactive |
| IQGLCCRHAEFKNY | inactive |
| IREFSNI | inactive |
| IRFSCSSSG | inactive |
| IRLFAVTAYSIVTYVRFMIG | inactive |
| IRNALIYIVISLKFGRRGCY | 0.107 ± 0.28 |
| IRNFPRDLEFLPFWHSILSL | inactive |
| IRPWQLCMSKLSHIRRATPY | inactive |
| IRRQYIYHSNEYRMMHYSES | 0.179 ± 0.85 |
| IRSKCR | inactive |
| IRVRLINSGAL | inactive |
| ISCGGLNQ | inactive |
| ISCTIVLRIVNYNAILVHTY | inactive |
| ISDTYSWCRYLVIGNYAQLG | 0.463 ± 0.23 |
| ISFNFHSSSTGRA | 1.38 ± 0.11 |
| ISFSWHF | 0.789 ± 0.17 |
| ISGFKIVSYMNKIVVSTMGL | inactive |
| ISHCMVLRNA | 2.49 ± 0.086 |
| ISHVNRSNLVFLYFIVVL | 0.669 ± 0.15 |
| ISIETGWRNHFTSVPACMLH | inactive |
| ISMSCNYSW | inactive |

| Substance | amyloid nucleation score |
| --- | --- |
| ISPYIIVPY | inactive |
| ISSNTGFCPAVMLGIPFFRI | inactive |
| ISSRGSMTRL | inactive |
| ISSRSGHVVMSFVCATLRNL | inactive |
| ISTLSVSLS | -0.258 ± 0.36 |
| ISWNLRGVVLLTYTICSWCI | inactive |
| ISYVYFLGPCV | 2.13 ± 0.08 |
| ITCLNMTWSTAGQWLCVSFT | 1.05 ± 0.17 |
| ITFLDWKLTTTG | inactive |
| ITFVYSS | inactive |
| ITGHRNVLIEHMVTTP | inactive |
| ITISIYRIGRRFFDEYFNSF | inactive |
| ITNCFWHWIRAISYANAANS | inactive |
| ITNCLTSACRTSLFMKTQII | inactive |
| ITNFIRWNTNV | inactive |
| ITRLNSMAMCYLIRFLS | inactive |
| IVADLHIHCEPRFSSHLTYE | inactive |
| IVCGISMIS | inactive |
| IVDFFGFNFCSWLSVFSDSR | 2.48 ± 0.056 |
| IVDNYVVAALLVVLS | inactive |
| IVESQRDASVLRSIPSIRIN | inactive |
| IVFSGNLLVGNGFGVLKRKT | 1.32 ± 0.14 |
| IVILPM | inactive |
| IVKTPVCSVTRRYPFSDRLL | inactive |

| Substance | amyloid nucleation score |
| --- | --- |
| IVLYRKVRPCTWAE | inactive |
| IVQVV | inactive |
| IVRLFLDVSSVTGHIWARCL | inactive |
| IVSLSLVMSTDLC | 0.834 ± 0.24 |
| IVTTQHMNGRSDYWITYSSV | -0.447 ± 0.74 |
| IVTYLLFDYHNPTRVSYYEC | inactive |
| IVVVAFKSPSV | 0.217 ± 0.32 |
| IVYLAVFRWGSMSKSRFGFD | inactive |
| IVYREVCVFVNM | 1.78 ± 0.063 |
| IWCQRYYAIGRRVPKASYDG | -0.179 ± 0.78 |
| IWFSLLVPDLPRIIGSLYIS | inactive |
| IWIMLHSCELWYADKADLDG | inactive |
| IWKGCSACFGKD | -0.222 ± 1.2 |
| IWSMWIYCRNGHH | inactive |
| IWVENQFDRRFLGVSMF | inactive |
| IYCTFAAFSHCQQWKNLFWR | -0.456 ± 1.1 |
| IYDAGFVYQIGTEEQVCNRV | inactive |
| IYFDVV | inactive |
| IYGTRGSIKSYDTHSGRCGR | inactive |
| IYIKCFNVSFLRSADWSKCA | inactive |
| IYIRRVRISVEATLRHCCVI | inactive |
| IYISFWR | 0.521 ± 0.2 |
| IYNRNGRF | inactive |
| IYRNKSTWWYWAWLVRNPML | inactive |

| Substance | amyloid nucleation score |
| --- | --- |
| IYSTWET | -0.698 ± 1.5 |
| IYSVYWDGMEPSIRTGWI | inactive |
| IYTLSTLLWFWSAWSILAVI | -0.197 ± 1.1 |
| IYTSFVTMERALSMFSPLFH | inactive |
| IYWLSDN | inactive |
| KALVGKYFKMCRTCDRYFYC | -0.416 ± 0.98 |
| KARLLMWS | 0.181 ± 0.28 |
| KCGIQLICMWFS | 1.47 ± 0.14 |
| KCNPVINFLWEMVLSDVFPL | inactive |
| KCRDLIRNVVPNSAIELDPS | inactive |
| KDALISYFYYDCMHCPQASR | inactive |
| KDCASGSRSTAIFAFCSGAF | 0.281 ± 0.27 |
| KDRHVSYFGLYKLGWRYTPS | inactive |
| KDTQWALYRNL | inactive |
| KEDLTSLVTLEKEALLVSDE | inactive |
| KFANYSPRDGTCGTDAHVSD | inactive |
| KFEGLF | inactive |
| KFGDPIRFWVTYYTNRSWSG | -0.732 ± 1.4 |
| KFGFLYPISCDVYGQDFLAL | inactive |
| KFKFVLILSEDAKAT | 1.23 ± 0.17 |
| KFLKLQVYASNGSSDPPRLD | inactive |
| KFNGCR | inactive |
| KFSSMGTVSLSGKSLYSDAV | inactive |
| KFVVDARFVTS | 1.33 ± 0.13 |

| Substance | amyloid nucleation score |
| --- | --- |
| KGCPVASMAQWNSCMCYVLV | 1.08 ± 0.12 |
| KGGCW | inactive |
| KGSFFLDCFGARRRIGLVKF | inactive |
| KGTLGCNSSSHVLIAVCNAM | inactive |
| KHVNLWSVGWFLGFLVWSRA | inactive |
| KHYDLGFQYFSR | inactive |
| KICVPSCSCTIFLDLFRY | 2.56 ± 0.08 |
| KILFILISFLWMLFLVWNFN | 1.48 ± 0.1 |
| KIQRYNILSGTCVFI | 1.51 ± 0.089 |
| KISFWVRERFNYRCTIGIEC | inactive |
| KISGNFKILDWVGNFSDGNS | inactive |
| KISNFLTSSLCMYGSLRWRV | 0.548 ± 0.2 |
| KKHIVY | inactive |
| KKISAQESEFVGSPFEYGGG | inactive |
| KKYLTNVDLNVSN | inactive |
| KLCGHIIYCVV | inactive |
| KLEREMADNDVARGGQLVLG | inactive |
| KLFGTKIVIVDVDSLCYMVL | inactive |
| KLFSYRRRPNINCLG | inactive |
| KLLLYMMYNRYLPM | 0.528 ± 0.32 |
| KLLSRYSTACMLRINLIRRY | inactive |
| KLQHIFLFFDRS | 1.1 ± 0.11 |
| KLRCNTIKGFCSHKTRMGRT | inactive |
| KLVICYCGYNHDCVVCTKRE | 1.56 ± 0.094 |

| Substance | amyloid nucleation score |
| --- | --- |
| KLVQLYTLKFFGLNCSKSVI | inactive |
| KLYIQCIYPDLVVINCDSWN | 2.39 ± 0.073 |
| KNDGKEF | inactive |
| KNDGTIVQM | inactive |
| KNLGLA | inactive |
| KNLHNTRRLCSVLLVCWMYK | inactive |
| KNQYSNSRLWYGALECHAPG | inactive |
| KNVFGSSFLLVVSYCNISAF | 1.95 ± 0.091 |
| KPCHASVET | inactive |
| KPCSLIRWPIKASMFSYVHS | inactive |
| KPMVYFQLRRLSKKVIYCAM | inactive |
| KQRVWR | inactive |
| KRCRFVVIFKSGIVTLWKLF | 0.568 ± 0.42 |
| KRDLGTNAFTMNRRCYQDTL | inactive |
| KREPKS | inactive |
| KRNSYTMFLA | inactive |
| KRPHV | inactive |
| KSALYADLVGYLGSACMGSR | inactive |
| KSHPLNSVPEKLMLVWRSWK | inactive |
| KSICELVIRRNFVSLNIATY | -0.336 ± 0.7 |
| KSKHTVMRWSLYSRRIMLVF | inactive |
| KSMSLKTFCGWGETQYVFFV | inactive |
| KSQMCNMMRRFYLRCIDLRL | inactive |
| KSSIMKGKLTHRGSQWFASQ | inactive |

| Substance | amyloid nucleation score |
| --- | --- |
| KSSSAYNRSDHGLMLDRRTQ | inactive |
| KSTSFTYFLLNIRLMGYCPC | 0.725 ± 0.16 |
| KTLVIYYTFKIGNILHIHLF | inactive |
| KTPLSSSCRKILIINTPRGM | inactive |
| KTYPTLCILCVDMLLRKRGV | inactive |
| KVCIHSIEIV | inactive |
| KVMTDIPDV | inactive |
| KVRSVDCRNTSNKDHW | inactive |
| KVVRVIVSEGNRVIKFTTMP | inactive |
| KVVVKEIQILVGSAGSKRMS | 0.638 ± 0.25 |
| KVVVTIRTVCRKKVDVICID | 0.071 ± 0.72 |
| KWFMVA | inactive |
| KWGIGMGPSHSGLISWGHNE | -0.448 ± 1.8 |
| KWPQLIWSGTYFKPFWSING | inactive |
| KYANILSFTPFNQQSI | inactive |
| KYCHIYFNICLWLAYSLSFL | inactive |
| KYCRRVYSSAETLYVLTHI | inactive |
| KYFRNLTVRKTKWE | inactive |
